Target: T1, hex-ΔN61-NS3 (cc-hex fused NS3) (Human norovirus GI, UniProt Q83883 460-761)
T1 sequence: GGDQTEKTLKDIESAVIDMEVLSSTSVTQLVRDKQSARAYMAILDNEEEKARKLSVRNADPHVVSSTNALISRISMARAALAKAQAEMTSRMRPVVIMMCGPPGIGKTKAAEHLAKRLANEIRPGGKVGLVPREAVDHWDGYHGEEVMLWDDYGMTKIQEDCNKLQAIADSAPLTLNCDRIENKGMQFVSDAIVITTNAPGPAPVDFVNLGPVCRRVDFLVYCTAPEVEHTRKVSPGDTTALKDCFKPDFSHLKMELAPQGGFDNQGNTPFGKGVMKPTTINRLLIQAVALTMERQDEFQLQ
Test: EMSA; 20 µM protein, 0.2 nM RNA, 5 mM Mg2+; EMSA: 25 mM HEPES pH 8.0, 30 mM NaCl, 5 mM MgCl2, 2 mM DTT, RNasin, 5% glycerol, 37 °C 1 h, 6% native PAGE; tweezers buffer not in material
Conditions: protein: recombinant; tags: N-terminal 32-residue cc-hex replaces residues 1-61; chain copies: 6; label: 5' HEX; single strand, 42 nt

B1: RNA1 (ssRNA)
RNA: CAUUAUCGGAUAGUGGAACCUAGCUUCGACUAUCGGAUAAUC
B1: binds.
